Experimental data from patent US20230139053A1.

What was measured:
[1] = target: anti-A2M antibody (MAB) labeled with a donor fluorophore; assay: competitive TR-FRET, competitor acceptor-labeled isolated A2M, whole blood; A2M 500 ug/mL, singleplex cals, 30 min (FIG. 2I)
[2] = target: anti-A2M antibody (MAB) labeled with a donor fluorophore; assay: competitive TR-FRET, competitor acceptor-labeled isolated A2M; unlabeled A2M 2000 ug/mL, mean of 4 replicates (FIG. 2G)
[3] = target: anti-A2M antibody (MAB) labeled with a donor fluorophore; assay: competitive TR-FRET, competitor acceptor-labeled isolated A2M; unlabeled A2M 1000 ug/mL, mean of 4 replicates (FIG. 2G)
[4] = target: anti-A2M antibody (MAB) labeled with a donor fluorophore; assay: competitive TR-FRET, competitor acceptor-labeled isolated A2M, whole blood; A2M 0 ug/mL, multiplex cals, 5 min (FIG. 2I)
[5] = target: anti-A2M antibody (MAB) labeled with a donor fluorophore; assay: competitive TR-FRET, competitor acceptor-labeled isolated A2M; unlabeled A2M 0 ug/mL, mean of 4 replicates (FIG. 2G)
[6] = target: anti-A2M antibody (MAB) labeled with a donor fluorophore; assay: competitive TR-FRET, competitor acceptor-labeled isolated A2M, whole blood; A2M 200 ug/mL, singleplex cals, 30 min (FIG. 2I)
[7] = target: anti-A2M antibody (MAB) labeled with a donor fluorophore; assay: competitive TR-FRET, competitor acceptor-labeled isolated A2M, whole blood; A2M 200 ug/mL, multiplex cals, 30 min (FIG. 2I)
[8] = target: anti-A2M antibody (MAB) labeled with a donor fluorophore; assay: competitive TR-FRET, competitor acceptor-labeled isolated A2M, whole blood; A2M 500 ug/mL, multiplex cals, 5 min (FIG. 2I)
[9] = target: anti-A2M antibody (MAB) labeled with a donor fluorophore; assay: competitive TR-FRET, competitor acceptor-labeled isolated A2M, whole blood; A2M 0 ug/mL, singleplex cals, 30 min (FIG. 2I)
[10] = target: anti-A2M antibody (MAB) labeled with a donor fluorophore; assay: competitive TR-FRET, competitor acceptor-labeled isolated A2M, whole blood; A2M 2000 ug/mL, multiplex cals, 30 min (FIG. 2I)
[11] = target: anti-A2M antibody (MAB) labeled with a donor fluorophore; assay: competitive TR-FRET, competitor acceptor-labeled isolated A2M, whole blood; A2M 200 ug/mL, multiplex cals, 5 min (FIG. 2I)
[12] = target: anti-A2M antibody (MAB) labeled with a donor fluorophore; assay: competitive TR-FRET, competitor acceptor-labeled isolated A2M, whole blood; A2M 2000 ug/mL, singleplex cals, 30 min (FIG. 2I)
[13] = target: anti-A2M antibody (MAB) labeled with a donor fluorophore; assay: competitive TR-FRET, competitor acceptor-labeled isolated A2M; unlabeled A2M 200 ug/mL, mean of 4 replicates (FIG. 2G)
[14] = target: anti-A2M antibody (MAB) labeled with a donor fluorophore; assay: competitive TR-FRET, competitor acceptor-labeled isolated A2M, whole blood; A2M 1000 ug/mL, singleplex cals, 30 min (FIG. 2I)
[15] = target: anti-A2M antibody (MAB) labeled with a donor fluorophore; assay: competitive TR-FRET, competitor acceptor-labeled isolated A2M, whole blood; A2M 1000 ug/mL, singleplex cals, 5 min (FIG. 2I)
[16] = target: anti-A2M antibody (MAB) labeled with a donor fluorophore; assay: competitive TR-FRET, competitor acceptor-labeled isolated A2M, whole blood; A2M 1000 ug/mL, multiplex cals, 5 min (FIG. 2I)
[17] = target: anti-A2M antibody (MAB) labeled with a donor fluorophore; assay: competitive TR-FRET, competitor acceptor-labeled isolated A2M, whole blood; A2M 4000 ug/mL, multiplex cals, 30 min (FIG. 2I)
[18] = target: anti-A2M antibody (MAB) labeled with a donor fluorophore; assay: competitive TR-FRET, competitor acceptor-labeled isolated A2M, whole blood; A2M 2000 ug/mL, multiplex cals, 5 min (FIG. 2I)
[19] = target: anti-A2M antibody (MAB) labeled with a donor fluorophore; assay: competitive TR-FRET, competitor acceptor-labeled isolated A2M, whole blood; A2M 500 ug/mL, singleplex cals, 5 min (FIG. 2I)
[20] = target: anti-A2M antibody (MAB) labeled with a donor fluorophore; assay: competitive TR-FRET, competitor acceptor-labeled isolated A2M; unlabeled A2M 4000 ug/mL, mean of 4 replicates (FIG. 2G)
[21] = target: anti-A2M antibody (MAB) labeled with a donor fluorophore; assay: competitive TR-FRET, competitor acceptor-labeled isolated A2M, whole blood; A2M 500 ug/mL, multiplex cals, 30 min (FIG. 2I)
[22] = target: anti-A2M antibody (MAB) labeled with a donor fluorophore; assay: competitive TR-FRET, competitor acceptor-labeled isolated A2M, whole blood; A2M 4000 ug/mL, singleplex cals, 30 min (FIG. 2I)
[23] = target: anti-A2M antibody (MAB) labeled with a donor fluorophore; assay: competitive TR-FRET, competitor acceptor-labeled isolated A2M, whole blood; A2M 0 ug/mL, singleplex cals, 5 min (FIG. 2I)
[24] = target: anti-A2M antibody (MAB) labeled with a donor fluorophore; assay: competitive TR-FRET, competitor acceptor-labeled isolated A2M, whole blood; A2M 2000 ug/mL, singleplex cals, 5 min (FIG. 2I)
[25] = target: anti-A2M antibody (MAB) labeled with a donor fluorophore; assay: competitive TR-FRET, competitor acceptor-labeled isolated A2M, whole blood; A2M 4000 ug/mL, multiplex cals, 5 min (FIG. 2I)
[26] = target: anti-A2M antibody (MAB) labeled with a donor fluorophore; assay: competitive TR-FRET, competitor acceptor-labeled isolated A2M, whole blood; A2M 4000 ug/mL, singleplex cals, 5 min (FIG. 2I)
[27] = target: anti-A2M antibody (MAB) labeled with a donor fluorophore; assay: competitive TR-FRET, competitor acceptor-labeled isolated A2M, whole blood; A2M 1000 ug/mL, multiplex cals, 30 min (FIG. 2I)
[28] = target: anti-A2M antibody (MAB) labeled with a donor fluorophore; assay: competitive TR-FRET, competitor acceptor-labeled isolated A2M, whole blood; A2M 200 ug/mL, singleplex cals, 5 min (FIG. 2I)
[29] = target: anti-A2M antibody (MAB) labeled with a donor fluorophore; assay: competitive TR-FRET, competitor acceptor-labeled isolated A2M; unlabeled A2M 500 ug/mL, mean of 4 replicates (FIG. 2G)
[30] = target: anti-A2M antibody (MAB) labeled with a donor fluorophore; assay: competitive TR-FRET, competitor acceptor-labeled isolated A2M, whole blood; A2M 0 ug/mL, multiplex cals, 30 min (FIG. 2I)

B1: A2M (alpha-2-macroglobulin), unlabeled calibrator / analyte (protein)
chain: SVSGKPQYMVLVPSLLHTETTEKGCVLLSYLNETVTVSASLESVRGNRSLFTDLEAENDVLHCVAFAVPKSSSNEEVMFLTVQVKGPTQEFKKRTTVMVKNEDSLVFVQTDKSIYKPGQTVKFRVVSMDENFHPLNELIPLVYIQDPKGNRIAQWQSFQLEGGLKQFSFPLSSEPFQGSYKVVVQKKSGGRTEHPFTVEEFVLPKFEVQVTVPKIITILEEEMNVSVCGLYTYGKPVPGHVTVSICRKYSDASDCHGEDSQAFCEKFSGQLNSHGCFYQQVKTKVFQLKRKEYEMKLHTEAQIQEEGTVVELTGRQSSEITRTITKLSFVKVDSHFRQGIPFFGQVRLVDGKGVPIPNKVIFIRGNEANYYSNATTDEHGLVQFSINTTNVMGTSLTVRVNYKDRSPCYGYQWVSEEHEEAHHTAYLVFSPSKSFVHLEPMSHELPCGHTQTVQAHYILNGGTLLGLKKLSFYYLIMAKGGIVRTGTHGLLVKQEDMKGHFSISIPVKSDIAPVARLLIYAVLPTGDVIGDSAKYDVENCLANKVDLSFSPSQSLPASHAHLRVTAAPQSVCALRAVDQSVLLMKPDAELSASSVYNLLPEKDLTGFPGPLNDQDNEDCINRHNVYINGITYTPVSSTNEKDMYSFLEDMGLKAFTNSKIRKPKMCPQLQQYEMHGPEGLRVGFYESDVMGRGHARLVHVEEPHTETVRKYFPETWIWDLVVVNSAGVAEVGVTVPDTITEWKAGAFCLSEDAGLGISSTASLRAFQPFFVELTMPYSVIRGEAFTLKATVLNYLPKCIRVSVQLEASPAFLAVPVEKEQAPHCICANGRQTVSWAVTPKSLGNVNFTVSAEALESQELCGTEVPSVPEHGRKDTVIKPLLVEPEGLEKETTFNSLLCPSGGEVSEELSLKLPPNVVEESARASVSVLGDILGSAMQNTQNLLQMPYGCGEQNMVLFAPNIYVLDYLNETQQLTPEIKSKAIGYLNTGYQRQLNYKHYDGSYSTFGERYGRNQGNTWLTAFVLKTFAQARAYIFIDEAHITQALIWLSQRQKDNGCFRSSGSLLNNAIKGGVEDEVTLSAYITIALLEIPLTVTHPVVRNALFCLESAWKTAQEGDHGSHVYTKALLAYAFALAGNQDKRKEVLKSLNEEAVKKDNSVHWERPQKPKAPVGHFYEPQAPSAEVEMTSYVLLAYLTAQPAPTSEDLTSATNIVKWITKQQNAQGGFSSTQDTVVALHALSKYGAATFTRTGKAAQVTIQSSGTFSSKFQVDNNNRLLLQQVSLPELPGEYSMKVTGEGCVYLQTSLKYNILPEKEEFPFALGVQTLPQTCDEPKAHTSFQISLSVSYTGSRSASNMAIVDVKMVSGFIPLKPTVKMLERSNHVSRTEVSSNHVLIYLDKVSNQTLSLFFTVLQDVPVRDLKPAIVKVYDYYETDEFAIAEYNAPCSKDLGNA
With B1 the F/B [1] was 0.71, the F/B Mean [2] was 0.532 and the F/B Mean [3] was 0.666. The F/B [4] was 1, the F/B Mean [5] was 1 and the F/B [6] was 0.88. It also gave a F/B [7] of 0.87, a F/B [8] of 0.71 and a F/B [9] of 1. It also gave a F/B [10] of 0.45, a F/B [11] of 0.83 and a F/B [12] of 0.43. The F/B Mean [13] was 0.905, the F/B [14] was 0.59 and the F/B [15] was 0.58. It also gave a F/B [16] of 0.58, a F/B [17] of 0.33 and a F/B [18] of 0.45. The F/B [19] was 0.72, the F/B Mean [20] was 0.393 and the F/B [21] was 0.74. It also gave a F/B [22] of 0.33, a F/B [23] of 1 and a F/B [24] of 0.43. The F/B [25] was 0.34, the F/B [26] was 0.33 and the F/B [27] was 0.56. For the same binder, the F/B [28] was 0.88, the F/B Mean [29] was 0.795 and the F/B [30] was 1.
